From patent publication US20220282288A1, “NOVEL OLEATE HYDRATASES” (BRAIN BIOTECH AG, priority 2019, published 2022)

B1: 1LI-2Lf: chimeric oleate hydratase: 193 N-terminal amino acids of Lactococcus lactis enzyme and 397 C-terminal amino acids of Lysinibacillus fusiformis enzyme (protein)
chain: MRYTNGNYEAFVHPRKPENVDQKSAYIIGAGLAGLATAVFLIRDGQMSGDRIHILEELPLSGGSLDGSFIPHDGFVVRGGREMENHFECLWDLFRTIPSLEVDNASVLDEFYRIDRDDPNSSNCRIIHNRGERVDDDGKFTLSPKAQEEIIKLFMTKEELLVGKTIEDCFTDEFFESNFWLYWCSMFAFEKWHSAMEMRRYIMRFIHHIGGLPDLSALKFTKYNQYESLVLPMIKYLEGHDVDFQYNTVVENVLVDKVGDKKVAHTLVLRKNGVKENIELTENELVFVTNGSITESTTYGDNYTPAPVNKELGGSWSLWKNIAAQDTDFGRPEKFCDNLPKESWFVSATLTTLDDRVAPYIEKISKRDPYAGKVVTGGIVTATDSNWMLSYTLNRQPHFKHQPKDQLVVWIYGLLSNKPGDFIKKSITECSGIEIAQEWLYHMGVPVDEIPDIAQNSCNTIPCYMPYITSYFMPRAMGDRPLVVPEGSANLAFIGNFSETVRDTVFTTEYSVRTAMEAVYQLLNIDRGVPEVFASSFDVRTLLASTARLLDGKKLTDIDAPFILKQIGKLGIHKTKDTIIYDLLKESELI
modifications: OhyLlac579Lfus
notes: chimeric oleate hydratase: 193 N-terminal amino acids of Lactococcus lactis enzyme and 397 C-terminal amino acids of Lysinibacillus fusiformis enzyme
B2: 1Lf-2LI: chimeric oleate hydratase: 193 N-terminal amino acids of Lysinibacillus fusiformis enzyme and 394 C-terminal amino acids of Lactococcus lactis enzyme (protein)
chain: MYYSNGNYEAFARPKKPEGVDGKSAYLIGSGLASLSAACFLIRDGQMKGENIHILEELDISGGSLDGILNPTRGFIIRGGREMEDHFECLWDLFRSIPSLEVDNASVLDEFYWLNKEDPNYSKCRLIKDRGQRLEDDGKFTLSDQSSEEMIKLFFTPEEKLEDKKITDVFSEEFFESNFWLYWSTMFAFEKWHSAIEMRRYIMRFIHHIEGLPDFSALKFTKYNQYESLVKPLISYLKDHGVDFKYGAQVENVEVDFSNGKKVAKAIVFADKKIKELTGNDLVFVTNGSITESSTQGSPTQVAPKTSELGGSWKLWQNLAKQSEEFGHPDVFCKDIPKEAWVVSATVTWKNLKIQPYFEKLTHRQLRSGKVVTGGIVTVKDSNWLLSFTTHRQPHFKEQNDQETVTWVYGLLSNTPGNYIKKPIEDCTGEEITQELLYHLGMPEEEIEAFVKENTNTIPVYMPFITSYFMLREPGDRPLVVPEQSVNLAFLGNFAETERDTVFTTEYSVRTAMEAVYQLLNVDRGVPEVYASAYDLRTLASSAYYLSDKQKLEDLELSFIKKQALKVGLKKIKGTYIEELLEDAGLI
modifications: OhyLfus581Llac
notes: chimeric oleate hydratase: 193 N-terminal amino acids of Lysinibacillus fusiformis enzyme and 394 C-terminal amino acids of Lactococcus lactis enzyme
B3: oleate hydratase from Lysinibacillus fusiformis: oleate hydratase of Lysinibacillus fusiformis, known from the prior art (protein, listed as Lysinibacillus fusiformis)
chain: MYYSNGNYEAFARPKKPEGVDGKSAYLIGSGLASLSAACFLIRDGQMKGENIHILEELDISGGSLDGILNPTRGFIIRGGREMEDHFECLWDLFRSIPSLEVDNASVLDEFYWLNKEDPNYSKCRLIKDRGQRLEDDGKFTLSDQSSEEMIKLFFTPEEKLEDKKITDVFSEEFFESNFWLYWSTMFAFEKWHSAMEMRRYIMRFIHHIGGLPDLSALKFTKYNQYESLVLPMIKYLEGHDVDFQYNTVVENVLVDKVGDKKVAHTLVLRKNGVKENIELTENELVFVTNGSITESTTYGDNYTPAPVNKELGGSWSLWKNIAAQDTDFGRPEKFCDNLPKESWFVSATLTTLDDRVAPYIEKISKRDPYAGKVVTGGIVTATDSNWMLSYTLNRQPHFKHQPKDQLVVWIYGLLSNKPGDFIKKSITECSGIEIAQEWLYHMGVPVDEIPDIAQNSCNTIPCYMPYITSYFMPRAMGDRPLVVPEGSANLAFIGNFSETVRDTVFTTEYSVRTAMEAVYQLLNIDRGVPEVFASSFDVRTLLASTARLLDGKKLTDIDAPFILKQIGKLGIHKTKDTIIYDLLKESELI
modifications: Oleat Hydratase
notes: oleate hydratase of Lysinibacillus fusiformis, known from the prior art
B4: oleate hydratase from Lactococcus lactis: oleate hydratase of Lactococcus lactis strain A106, previously annotated as linoleate isomerase (protein, listed as Lactococcus lactis)
chain: MRYTNGNYEAFVHPRKPENVDQKSAYIIGAGLAGLATAVFLIRDGQMSGDRIHILEELPLSGGSLDGSFIPHDGFVVRGGREMENHFECLWDLFRTIPSLEVDNASVLDEFYRIDRDDPNSSNCRIIHNRGERVDDDGKFTLSPKAQEEIIKLFMTKEELLVGKTIEDCFTDEFFESNFWLYWCSMFAFEKWHSAIEMRRYIMRFIHHIEGLPDFSALKFTKYNQYESLVKPLISYLKDHGVDFKYGAQVENVEVDFSNGKKVAKAIVFADKKIKELTGNDLVFVTNGSITESSTQGSPTQVAPKTSELGGSWKLWQNLAKQSEEFGHPDVFCKDIPKEAWVVSATVTWKNLKIQPYFEKLTHRQLRSGKVVTGGIVTVKDSNWLLSFTTHRQPHFKEQNDQETVTWVYGLLSNTPGNYIKKPIEDCTGEEITQELLYHLGMPEEEIEAFVKENTNTIPVYMPFITSYFMLREPGDRPLVVPEQSVNLAFLGNFAETERDTVFTTEYSVRTAMEAVYQLLNVDRGVPEVYASAYDLRTLASSAYYLSDKQKLEDLELSFIKKQALKVGLKKIKGTYIEELLEDAGLI
modifications: Oleat Hydratase
notes: oleate hydratase of Lactococcus lactis strain A106, previously annotated as linoleate isomerase

How the values were obtained:
[1] = Conversion of oleic acid to 10-hydroxystearic acid by cell-free extracts (HPLC); assay type: biochemical; conditions: for activity at 30° C. compared with the wildtype enzymes: FIG. 3; for conversion of oleic acid to 10-hydroxystearic acid: cell-free extracts, pH7.0, 30° C., 150 mM oleic acid, 60 min, FAD 0.1 mM, NADH 5 mM, HPLC analysis
[2] = Effects of pH on enzyme activity (oleic acid to 10-hydroxystearic acid, HPLC-MS); assay type: biochemical; conditions: citrate/phosphate buffer pH 5.6-8.0, 30° C., 40 min, 150 mM oleic acid
Protocol: The reactions were performed in 100 mM citrate/phosphate buffer (pH levels ranging from 5.6-8.0) containing MgSO4; 8.9 mg/ml total protein of Lactococcus lactis or 9.3 mg/mL of total protein of chimeric oleate hydratase from Lysinibacillus fusiformis and Lactococcus lactis. FAD (0.1 mM) and NADH (5 mM) were applied for the FAD-reducing conditions. Reactions were started by the addition of 150 mM oleic acid at 30° C. for 40 min. Following the reactions, the solutions of fatty acids and hydroxy fatty acids were recovered by three consecutive extractions with 1.6 volume of dichloromethane. After solvent evaporation, the resultant sample was diluted in ethanol and analyzed by HPLC-MS. Analyses were performed on an Agilent 1100 HPLC instrument equipped with evaporative light scattering detector (ELSD) and a Luna® C18 (2) HPLC column (RP-18e 5 μm, 250×4.6 mm) maintained at 50° C. The elution system consisted of ddH2O with 0.1% formic acid (A) and methanol with 0.1% formic acid (B). The gradient was set as follows: 0 min (80% B); 15 min (100% B); 23.2 min (80% B) at a flow rate of 0.7 mL min^−1.
Data represent the mean±standard deviation of three independent experiments (FIG. 5A and FIG. 6A).

[3] = Effects of temperature on enzyme activity (oleic acid to 10-hydroxystearic acid); assay type: biochemical; conditions: pH7.0, 150 mM oleic acid, 20 min
Protocol: The reactions were performed in 100 mM citrate/phosphate buffer (pH7.0) containing MgSO4;
3.1 mg/ml total protein of Lactococcus lactis (a) or 5.6 mg/mL of total protein of chimeric oleate hydratase from Lysinibacillus fusiformis and Lactococcus lactis (b). FAD (0.1 mM) and NADH (5 mM) were applied for the FAD-reducing conditions. Reactions were started by the addition of 150 mM oleic acid for 20 min. At the relative activity of 100%, the specific enzyme activity of the oleate hydratase from Lactococcus lactis was 0.8 μmol min^−1 mg^−1 total protein and the specific enzyme activity of the chimeric oleate hydratase from Lysinibacillus fusiformis and Lactococcus lactis was 1.0 μmol min^−1 mg^−1 total protein.

[4] = Kim, Bi-Na et al. (2012); cited from earlier work

Molecule | activity at 30° C. compared with the wildtype enzymes [1] | conversion of oleic acid to 10-hydroxystearic acid [1] | pH optimum [2] | specific enzyme activity at the relative activity of 100% [3] | temperature of maximal enzyme activity [4] [°C] | temperature of highest enzyme activity (temperature optimum) [3] [°C]
B1 | higher than the wildtype enzyme from Lactococcus lactis and lower than the wildtype enzyme from Lysinibacillus fusiformis | confirmed |  |  |  | 
B2 | higher than the wildtype enzyme from Lactococcus lactis and lower than the wildtype enzyme from Lysinibacillus fusiformis | confirmed | 6.5 | 1.0 μmol min^−1 mg^−1 total protein |  | 
B3 |  |  |  |  | 35 | 
B4 |  |  |  | 0.8 μmol min^−1 mg^−1 total protein |  | 15
